Laboratory results as given in US20230212306A1 (Daiichi Sankyo, published 2023).

T1: rat TLR7-Flag-His×6, expressed in Ba/F3 cells (rat, UniProt P58681 27-1050 (mouse entry))
T1 construct: cells permeabilised with 0.1% saponin; not shown: Flag-His×6 tag added to the C-terminus
T1 chain: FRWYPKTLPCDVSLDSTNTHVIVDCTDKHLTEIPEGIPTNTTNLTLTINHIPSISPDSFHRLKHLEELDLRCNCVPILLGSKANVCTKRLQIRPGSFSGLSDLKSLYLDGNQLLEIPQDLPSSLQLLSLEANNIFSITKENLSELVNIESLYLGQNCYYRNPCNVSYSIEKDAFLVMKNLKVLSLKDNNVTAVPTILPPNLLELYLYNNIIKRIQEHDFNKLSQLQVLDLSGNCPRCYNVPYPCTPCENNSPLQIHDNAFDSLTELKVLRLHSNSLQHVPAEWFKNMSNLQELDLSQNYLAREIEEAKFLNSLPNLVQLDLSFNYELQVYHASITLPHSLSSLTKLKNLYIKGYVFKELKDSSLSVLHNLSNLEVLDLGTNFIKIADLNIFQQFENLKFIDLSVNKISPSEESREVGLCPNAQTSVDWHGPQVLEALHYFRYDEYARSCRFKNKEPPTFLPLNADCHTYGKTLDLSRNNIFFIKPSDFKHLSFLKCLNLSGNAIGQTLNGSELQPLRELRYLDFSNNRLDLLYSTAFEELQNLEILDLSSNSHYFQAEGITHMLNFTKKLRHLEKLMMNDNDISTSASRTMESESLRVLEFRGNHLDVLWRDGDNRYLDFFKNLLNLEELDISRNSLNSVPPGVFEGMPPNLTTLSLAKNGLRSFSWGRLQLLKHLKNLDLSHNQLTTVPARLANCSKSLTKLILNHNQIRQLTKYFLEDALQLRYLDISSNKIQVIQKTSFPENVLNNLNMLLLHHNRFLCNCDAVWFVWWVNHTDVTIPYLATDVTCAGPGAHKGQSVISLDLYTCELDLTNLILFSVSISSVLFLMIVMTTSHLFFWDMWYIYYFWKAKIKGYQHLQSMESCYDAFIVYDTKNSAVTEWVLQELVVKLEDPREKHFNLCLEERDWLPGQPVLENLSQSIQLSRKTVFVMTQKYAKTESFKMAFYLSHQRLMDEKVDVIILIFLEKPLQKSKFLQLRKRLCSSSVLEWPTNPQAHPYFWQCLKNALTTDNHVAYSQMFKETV

T2: monkey TLR7-Flag-His×6, expressed in Ba/F3 cells (monkey, UniProt Q9NYK1 27-1049 (human entry))
T2 construct: cells permeabilised with 0.1% saponin; not shown: Flag-His×6 tag added to the C-terminus
T2 chain: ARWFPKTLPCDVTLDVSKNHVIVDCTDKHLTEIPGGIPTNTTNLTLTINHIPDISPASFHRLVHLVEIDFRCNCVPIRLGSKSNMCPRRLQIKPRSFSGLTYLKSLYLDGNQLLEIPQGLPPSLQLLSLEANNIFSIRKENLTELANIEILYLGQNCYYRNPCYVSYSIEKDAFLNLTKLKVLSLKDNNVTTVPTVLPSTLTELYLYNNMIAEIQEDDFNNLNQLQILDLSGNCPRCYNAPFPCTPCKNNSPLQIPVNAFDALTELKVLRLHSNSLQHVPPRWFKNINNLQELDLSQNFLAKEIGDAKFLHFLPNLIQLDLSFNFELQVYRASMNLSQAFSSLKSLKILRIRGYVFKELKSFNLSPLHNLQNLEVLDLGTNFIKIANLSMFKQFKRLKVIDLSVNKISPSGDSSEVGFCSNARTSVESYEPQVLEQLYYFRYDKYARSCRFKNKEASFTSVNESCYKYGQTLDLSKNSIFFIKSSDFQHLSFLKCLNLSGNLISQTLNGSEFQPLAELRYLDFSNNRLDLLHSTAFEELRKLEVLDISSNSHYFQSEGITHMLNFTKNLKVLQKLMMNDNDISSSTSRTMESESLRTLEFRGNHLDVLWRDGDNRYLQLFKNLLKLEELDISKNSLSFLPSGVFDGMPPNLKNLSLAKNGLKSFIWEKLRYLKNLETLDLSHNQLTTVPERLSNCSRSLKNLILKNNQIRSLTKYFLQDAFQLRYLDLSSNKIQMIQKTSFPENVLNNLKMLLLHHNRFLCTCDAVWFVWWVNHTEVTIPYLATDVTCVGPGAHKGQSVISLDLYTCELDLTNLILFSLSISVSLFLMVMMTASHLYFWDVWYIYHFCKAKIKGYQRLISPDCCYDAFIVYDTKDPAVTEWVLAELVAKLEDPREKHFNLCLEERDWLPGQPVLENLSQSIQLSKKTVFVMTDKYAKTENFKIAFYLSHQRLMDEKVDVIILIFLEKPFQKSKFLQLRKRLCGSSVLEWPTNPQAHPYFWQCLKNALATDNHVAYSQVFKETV


Experiments:
[1] = molecular target: T1, rat TLR7-Flag-His×6, expressed in Ba/F3 …; assay: flow cytometry (MFI) on saponin-permeabilised Ba/F3 cells expressing rat TLR7-Flag-His×6
Text: (§1) The Ba/F3 cell line expressing human TLR7-Flag-His×6/human Unc93B1-HA×2 established above in 1)-1-1, the Ba/F3 cell line expressing mouse TLR7-Flag-His×6 established above in 2)-1-1, the Ba/F3 cell line expressing rat TLR7-Flag-His×6×2 established above in 2)-1-2, and the Ba/F3 cell line expressing monkey TLR7-Flag-His×6 established above in 2)-1-3 were subjected to membrane permeation with 0.1% Saponin and stained using AT01 antibody, NB7 antibody, and FAN2 antibody, and a secondary antibody, Goat anti-mouse IgG (H+L)-PE (eBioscience). The binding selectivity of each antibody was evaluated by comparing the average fluorescence intensity (MFI) based on flow cytometry analysis.

[2] = molecular target: T2, monkey TLR7-Flag-His×6, expressed in …; assay: flow cytometry (MFI) on saponin-permeabilised Ba/F3 cells expressing monkey TLR7-Flag-His×6
Text: as §1

binding result [1] | binding result [2] | Binder
no binding | binds | NB7 antibody (antibody, IgG1, V domains shown, also called mouse anti-human TLR7 antibody (NB7)) VH: DVQLQESGPGLVKPSQSLSLTCTVTGYSITSDYAWNWIRQFPGNKLEWMGHISYRGNTNYNPSLKSRISITRDTSKNQFFLQLNSVTTEDTATYYCASWNYYGYVDYAMDYWGQGTSVTVSS VL: DIQMTQTPSSLSASLGDRVTISCRASQDISNYLNWYQQKPDGTVKLLIYYTSRLHSGVPSRFSGSGSGTDYSLTINNLEQEDIATYFCQQGDTFPTFGGGTKLEIK
no binding | binds | FAN2 antibody (antibody, IgG1, V domains shown, also called mouse anti-human TLR7 antibody (FAN2)) VH: QVQLKESGPGLVAPSQSLSITCTVSGFSLTGYGVNWVRQPPGKGLEWLGMIWGDGSTDYNSALKSRLSIRKDNSKSQVFLKMNSLQTDDTARYYCARDKGYDGYYYAMDYWGQGTSVTVSS VL: DIQMTQSPASLSASVGETVTITCRASENIYSYLAWYQQKQGKSPQLLVYDAKTLAEGVPSRFSGSGSGTQFSLKINSLQPEDFGSYYCQHHYGIPYTFGGGTKLEIK
no binding | binds | AT01 antibody (antibody, IgG1, V domains shown, also called mouse anti-human TLR7 antibody (AT01)) VH: QVQLQQPGAELVKPGASVNLSCKASGYTFTNNWLHWVKQRPGRGLEWIGDIYPSNGRTNYNEQFKTKATLTVDKSSSTAYMQLSSLTSEDSAVYFCARERGYFDYWGQGTALTVSS VL: DIQMTQSPSSLSTSLGGKVTITCKASQDINKYIAWYQHKPGKGPRLLIHYTSTLQPGIPSRFSGSGSGRDYSFSISNLEPEDIATYYCLQYDYLLTFGAGTKLELK
